Holding throughout (test): MYTH quantitative β-Gal activity assay
For experiment [1], the target named is TbMCUc without the mitochondrial targeting signal, MYTH bait or prey. As to conditions: n = 3; 8 colonies for each independent experiment; parent: est. 140; read off a plot.
The target of experiment [2] is TbMCUd without the mitochondrial targeting signal, MYTH bait or prey. To be noted: n = 3; 8 colonies for each independent experiment; parent: est. 120; read off a plot.
In another experiment the target is TbMCUdΔ4. As to conditions: n = 3; 8 colonies were used in each independent experiment; read off a plot.
For a further experiment, the target named is TbMCUcΔ2. As to conditions: n = 3; 8 colonies were used in each independent experiment; read off a plot.
In another experiment the target is TbMCUdΔ3. As to conditions: n = 3; 8 colonies were used in each independent experiment; read off a plot.
The target in a further experiment is TbMCUdΔ2. As to conditions: n = 3; 8 colonies were used in each independent experiment; read off a plot.
The target in the next experiment is TbMCUcΔ4. As to conditions: n = 3; 8 colonies were used in each independent experiment; read off a plot.
Another experiment deals with TbMCUcΔ3. To be noted: n = 3; 8 colonies were used in each independent experiment; read off a plot.

As for “TbMCU without the mitochondrial targeting signal, MYTH bait or prey TMH1 replaced by WALP (…)”, the response in experiment [1] stood at 82 units; in experiment [2], 78 units. Substance “TbMCUd without the mitochondrial targeting signal, MYTH bait or prey MCUdΔ4: TMH1 and TMH2 each replaced by WALP (…), in bait and prey” had a response in the experiment with TbMCUdΔ4 of 15 units. “TbMCU without the mitochondrial targeting signal, MYTH bait or prey Q213A; V216F; I217F; F222A”: the response was 100 units in experiment [1] and 88 units in experiment [2].

Consider “TbMCU without the mitochondrial targeting signal, MYTH bait or prey Y235A; F236A; T241E; Y248A”, for which the response in experiment [1] was determined as 65 units; in experiment [2] it was 58 units. In the case of “TbMCU without the mitochondrial targeting signal, MYTH bait or prey TMH2 replaced by WALP (…)”, the response in experiment [1] is 50 units; in experiment [2], 45 units. Turning to “TbMCUc without the mitochondrial targeting signal, MYTH bait or prey MCUcΔ2: TMH1 replaced by WALP (…), in bait and prey”, the response with TbMCUcΔ2 came to 85 units.

For “TbMCU without the mitochondrial targeting signal, MYTH bait or prey TMH1 and TMH2 each replaced by WALP (…)”, the response in experiment [1] was found to be 15 units; in experiment [2] it was 12 units. For the substance “TbMCUd without the mitochondrial targeting signal, MYTH bait or prey MCUdΔ3: TMH2 replaced by WALP (…), in bait and prey”, in the experiment with TbMCUdΔ3, the response stood at 52 units. The substance “TbMCUd without the mitochondrial targeting signal, MYTH bait or prey MCUdΔ2: TMH1 replaced by WALP (…), in bait and prey” showed a response with TbMCUdΔ2 of 70 units.

The substance “TbMCUc without the mitochondrial targeting signal, MYTH bait or prey MCUcΔ4: TMH1 and TMH2 each replaced by WALP (…), in bait and prey” gave a response with TbMCUcΔ4 of 20 units.

For “TbMCUc without the mitochondrial targeting signal, MYTH bait or prey MCUcΔ3: TMH2 replaced by WALP (…), in bait and prey”, the response with TbMCUcΔ3 is 55 units.

(Values after publication PMC6143741.)
